Experimental data taken from the DeepSol protein solubility set.

Experiment: soluble on expression in E. coli; label from the status in PepcDB or PDB records
With “MRRARIQIKPNISKAAKQEPPPEPAPVVEETLPQAPVVAEPRILENVETMTNQVSLTVASESMKSLHVDTSKNHHVHFTDDVIDNEQNRIQETPDIVMISPTSQQNAQFASPNPPARLTPRSRNVSMCEDEAILQPKQPRDKKRFSGREELDTKTWKMSDLTRWNPKNEMTRFKRERRSSTSSSVITKSEIGDLDAPPAPRINAPQVKIGADGRLVIDETSLVVHSAQINHESVWETVEEGRMGAKITSMSFRKRGFGKSSFWSEKETDLFYEVLQCTGQDFGLMSHYLPKRTRPELKAKYNREEKINWARVLNAISHPVRLDGNLEVRISKLMTEMEEEAQEKKAKGEYEKAEEKRIREQNRLQKATERNQAKELVKQAKELERDARNAAKLNMKADKEARAQEKSETRQLEKTALKEARLMATEAKRIAMEARAIIKESRKLEKSKKADSVQSDSHNLEREAERIIRRLLQESQREDRRTAHFNKNDKPAAPKSTEEATTSEVSAPTKSPAPVVVTIDASEGELGDTSTDAADSSSASSSDDDALRKDAARREKQRMKEARRNLKPRKTVADKKPVYVDTTDPKYAQQKVSRAVEMVLKANGNMFDSAGEQDDDFPDPDEMETSAEPVVVEEVAPDPTPPPPENMEENVVEESVPQSVIDVVEEIMRGRSKTPVETAVKPLENTEESKTDGEDRKKRSADVDSGGPSPKVARLEGVDVPVEDSTEVATSSTVTSSSAPSSSSSTTVAPAIKPSTAPKPAIASARRTVKKPNTWSKKK” the “soluble on expression in E. coli” value was “not soluble”.
For “MQLGISKEQAGTVIGGLAGVAIGSTMGSGNGKIAAALIAGGIGAYVGNRIGHMLDEKDQQALALRTQEVLSQQQTTASAQPVTWKSDHSGATAQIVPGKEYTKTKQVEVKRAPKIQAVPSMKLINEPYVTISDNLNVRAAPNQAGEKVGSLKNHTEFTAVGSTGDWILVGRKGVTVGYVHKNYVEPKAQAVAKRVTPAVNLDELDVAASKETQGFDLDSVQSLPTQTVAAEAACRPVTVSLKSLEHHHHHH”, the “soluble on expression in E. coli” value was “soluble”.
For “MNGIKTGLGITPGEHIISADSALSRNIRQCFCLSCHGRLILQTDAQGAWFEHDLYALSEQQKAACVVLNPEKSHPYIEDMEMFLSPLPVVLEWHCMMCEQFFHGKKFCEACGTGIYCRAVCTKSVYSYQPDLFQDCGGAST”, the “soluble on expression in E. coli” value was “soluble”.
For “MSEKPLTKTDYLMRLRRCQTIDTLERVIEKNKYELSDNELAELTMNKLYDKIPSSVWKFIRLAVFYSAADHR”, the “soluble on expression in E. coli” value was “not soluble”.
For “MGSDKIHHHHHHMKVAIVIHDLKGGGAEKMMMRLANAISKQHHEVDLVLLTNGGTNKDLLDNGVNLIELNSLRTASSVPRLRQYLKINSPDRVLSALTHVNVITFIACLSLGWLSRLHCSERNAFSFDKDVNKSPLIKFAYFLAPFLYRISPNPVIAVSLGVALDLIETTVVCPKNVINLPNPTLNDNYKTHIFLAPSHPWLSDKTKPVIVGLGRLAQQKGFSDLINAFALVREKIDSRLIIFGEGELRIKLQTQIDNLGLTDSVSLFGYVRAPMDEVHSADVFVLSSLFEGSPNALVEAMASRCKVVSTRCPCGPDEILIQGALGILVPVKSPNKLAEAIICSLLDADYDFENQLDKIERFTANNSASAYLSAMGIHGV”, the “soluble on expression in E. coli” value was “not soluble”.
For “MTNNAVLQLRAERLARATRPFLARGNRVRRCQRCLLPLKSCLCDTLTPSQAKSRFCLVMFDTEPMKPSNTGRLIADILPDTAAFQWSRTEPPQALLELVQHPDYQPIVVFPASYAGEAREVISTPPAGKPPLFIMLDGTWPEARKMFRKSPYLDHLPVISVDLSRLSAYRLREIHAEGQYCTAEVAIALLDLAGDTEAATSLGEHFTRFKTRYLAGKTQHPGNVTALEHHHHHH”, the “soluble on expression in E. coli” value was “soluble”.
With “MTQCYAEITGWGKCLPPATLSNHDLSTFLDTSDEWIQSRTGIEQRRISHVNTSDLATVAAQHAIACAGVSVEEIDLIIVATCSPDSLIPNIASRVQQNLGIPSAAAFDLNAACTGFLYGLETATRLMQASHYRHALVIGAERLSFYLDWTKRDTAVLFGDGAGAVVLSKTEQKVGLQDAQIGCDAQGRDILAVPKFGTAMDRFDADNGYWAFDFVGKEIFKRAVRGMGAAAQQVLARSGLSTEEIDVVIPHQANIRIIQTLCDLAGIAQDKAFVNIHRYGNTSAATVPIALCEALEQGKIKPHDDLLVAAFGAGLTWGAGHIRWGERITPLGKSDAQLPSCDHTALDLLSKAIEHCKRHQSE” the “soluble on expression in E. coli” value was “not soluble”.
For “MGSDKIHHHHHHMSHGAGEPYFLTEMSDMAVAGCHVMAKPGGAICNIDCTYCFYLEKEALYPERNKNWRMSDETLEQFIRQHIAAQSGDRIDFAWQGGEPTMMGLPFFRRVVALCEKYGDGRKITHALQTNGILVNDEWARFFAEQHFLIGLSIDGPASLHNHYRFNRAGKGTHEQVVAAMARLKAHHVDFNTLTVVGKHNVGHAADVYEFLLAAGSRFIQFIPLVERMSTDNSSVLNLVMPGESAATLAPWTVPSWQYGEFLNQIFDIWVRRDVDRVYVQMFDVALAAWTAQQPVLCVHSETCGHAFALESNGDLYNCDHFVYPEHLLGNIHQHSIKALNNSERAIAFGEAKRETLTADCRRCDYRFVCHGGCPKHRFAVSPSGHPAHNYLCAGYKHFFQHVTPYMNVWRELLAQGYPMASIMRWLAQDARKDTGAVSRNHPCPCGSGKKYKKCCGKA”, the “soluble on expression in E. coli” value was “not soluble”.
For “MILTPIRRYGAMILMLLTLVFSSEVLAKTHTTTASQKSHLTKASNKQVSSKQEYSRNSAKSSSLPDLRKYPSGTSRKKAFLRTVMPYITSQNAAITAERNWLISKQYQGQWSPAERARLKDIAKRYKVKWSGNTRKIPWNTLLERVDIIPTSMVATMAAAESGWGTSKLARNNNNLFGMKCMKGRCTNAPGKVKGYSQFSSVKESVSAYVTNLNTHPAYSSFRKSRAQLRKADQEVTATAMIHKLKGYSTKGKSYNNYLFAMYQDNQRLIAAHM”, the “soluble on expression in E. coli” value was “not soluble”.
In the case of “AAADSTSMSYSVTLTGPGPWGFRLQGGKDFNMPLTISRITPGSKAAQSQLSQGDLVVAIDGVNTDTMTHLEAQNKIKSASYNLSLTLQKSKRPIPISTTAPPVQTPLPVIPHQKDPALDTNGSLVAPSPSPEARASPGTPGTPELRPTFSPAFSRPSAFSSLAEASDPGPPRASLRAKTSPEGARDLLGPKALPGSSQPRQYNNPIGLYSAETLREMAQMYQMSLRGKASGVGLPGGSLPIKDLAVDSASPVYQAVIKSQNKPEDEADEWARRSSNLQSRSFRILAQMTGTEFMQDPDEEALRRSSTPIEHAPVCTSQATTPLLPASAQPPAAASPSAASPPLATAAAHTAIASASTTAPASSPADSPRPQASSYSPAVAASSAPATHTSYSEGPAAPAPKPRVVTTASIRPSVYQPVPASTYSPSPGANYSPTPYTPSPAPAYTPSPAPAYTPSPVPTYTPSPAPAYTPSPAPNYNPAPSVAYSGGPAEPASRPPWVTDDSFSQKFAPGKSTTSISKQTLPRGGPAYTPAGPQVPPLARGTVQRAERFPASSRTPLCGHCNNVIRGPFLVAMGRSWHPEEFTCAYCKTSLADVCFVEEQNNVYCERCYEQFFAPLCAKCNTKIMGEVMHALRQTWHTTCFVCAACKKPFGNSLFHMEDGEPYCEKDYINLFSTKCHGCDFPVEAGDKFIEALGHTWHDTCFICAVCHVNLEGQPFYSKKDRPLCKKHAHTINL”, the “soluble on expression in E. coli” value was “soluble”.
With “MGSDKIHHHHHHVDWNWNGDIRFRYDSSKTELASSPDKPADDRYRLRARFGVSPTINDELSAGLRLATGDGKNPTSTNQTLGKDFADKAIWLDEAYINYHPKALEGKVNVLLGKRDIAKTFNVVKDLVWDSDVTIEGATLQYGKDVSGKQKSGPSLIAGYYTLENYATASDPCIFAVQGAYMGTVSGADFNLGASYFDYVHMKNVAWWNSPNGPANDGKDFRILEVFGTLGGKLGGSLPATLYAQYAHNTALNSDNNAVLAGLKLGSDKKPGGWTLDGGYFYIEKYAVTPLTDGDRPMSSKYSTDIKGLKIGATYQLVQNMTLGATYFHVNPVDSSLTGSTSDHKNLVQADVAVNF” the “soluble on expression in E. coli” value was “not soluble”.
In the case of “MKIALIGATGHVGHYFLNEALQRGHAVTALVRDPSKLAARDGLCVVQADVSDPAQVASAVAGHEVVISAFNGGWGSADLRARHAAGSQAILDGVKRSGVPRLLVLGGAGSLEIAPGQRLVDSPEFPEQWKQGALGAADALDQLRGEQRLDWVFLSPAMLLEPGQRSGKFRLGGDQVLFDAKGESRISLEDLAVAMLDEAEQPRHHRQRFTVAYLEHHHHHH”, the “soluble on expression in E. coli” value was “soluble”.
For “MGSDKIHHHHHHMNLYEKLAEDIETSIRQGVYRHGERLPSVRQISQQHRISVTTAIRAYLLLESRGLVTSRPQSGYFVNRRDESERKALELRPSKPIPISSPVDVSRLVLSTLRSIGVDDAVPLGSPYPDPSLFPFERINRYAYDAGRGKAQWGVTDALPPGNAKLVRQIARRYLENGMAVDPNEIIITVGATEAINLCLQAVAKPGDVIAVESPTFYAMLHAIERMGMKAIEVSTHPEHGIDIEALAAIVESQPIAACMVMPNFQNPLGFLMPDERKRELVELLTKRNIPVIENGVYNELHFDSPHPSTLKSFDTKGLVLHCSSFSKSLTSAYRIGWALPGRYRDQVEKLKFLNTLTSPSIPQLAIAEFLERDGFEHHLRKVRKAYAQQANLMKAIVSRFFPEGTRMSNPAGGYVLWVELPPRVDSMRLYKLALDQGITIGPGYMFSVSETTYRNFIRLNYSSPWSGEIEQAVITVGKLVSMCAS”, the “soluble on expression in E. coli” value was “not soluble”.
In the case of “MTKTNLITGFLGSGKTTSILHLLAHKDPAEKWAVLVNEFGEVGIDGALLADSGALLKEIPGGCMCCVNGLPMQVGLNTLLRQGKPDRLLIEPTGLGHPKQILDLLTAPVYEPWIDLRATLCILDPRLLLDQQSVANENFRDQLASADIIIANKTDRATAQSDAALQQWWRQYGGDRQLIHAEHGQIDGKLLDLPRQNLAELPASAAHSHTHASKKGLAALNLPAQQRWRRSLNSGQGHQACGWIFDADTVFDTIGLLEWARLAPVGRVKGVMRIQEGLVRINRQGDDLHIETQSVAPPDSRVELISNTETDWNTLQTALLKLRLATHA”, the “soluble on expression in E. coli” value was “not soluble”.
For “MATDQKRGLLIVFEGLDRSGKSTQAKRLVESINKKSTESGDASSSPSAVLQAFPDRSSSIGKLIDQYLRKEIDMDEHALHLLFSADRFSKNQMIRDNIAKGIDVICDRYCYSGVAYSLAKGLPEQWVRSSDVGLPKPDAVLFFDVSPEVAAQRGGFGEERLETATIQQKVAAVMPTLRDDAYWKTVNADGDLDSVEKNVFRIYENLDREKPFESLEKI”, the “soluble on expression in E. coli” value was “not soluble”.
In the case of “MTQTNNPLHGITLETIITQLVEHYGWEELGARIKIRCFTEAPSIKSSLRFLRKTDWAREKVEYLYLKTNKLPLPAAKSIQAPAKEPSKKSAPKPNSKPTQTKVVTPTPAVEGQVNSHIWGKRDLEHHHHHH”, the “soluble on expression in E. coli” value was “soluble”.
With “MGAGMLGNINDIDLRMLRTFCAIVEAGGFTAAQARLNTSLSRLSVLVRDLEVRLGYSLCRRGNGGFQLTEEGQELYDAALGLFSDIARFREQVRGLGGRDREALHLGCVDGVIGQHCLPLPLAIRLFRQRAPEVLLKLHTRRPDELEHAVLEERLQLAVGAFHHRLSGLYYQPLFREEQNLYCGSAHPFFARADDEPTLGEICAADYVGRGYMAENHRPHDLRFNQGTDAYTMEAIATLVFSGTYIGYLPTHYAATWVAEGRMRAIRPRQLAYDSEFHCITRQGHEERPTLTLFLRSLFEAQKQLGVQVPANTNGIARQL” the “soluble on expression in E. coli” value was “not soluble”.
In the case of “MSLKSKPVFRLVVAATGLCALPTWADGWPSWSPETAVVPYYFVSDSMGNTLGVAGLAKHVGQANASVLGTALYSDKGSYVTYLSATNYQVGDFWLLGAESYQGKFVDYDYYLGANASNDSTAADRTIATGKESITRFSFRYIVPWGHAAFRGARAALEPTRQIKGFSPDRSGITTIEFQPFHTSREINAIAGQDSDSSGLSLKLDWDNRNDVRNPTQGFRTRLDITYADENWGNDSDWLKYEYSSSGFWNLGGVDDLLDQQVFAFNFYIADTPTWNNCNTQTCQRPPEFDQVSLGGLYRLRSFSSGRFHGKSAINYSAEYRVLPKWQPLDDIPVLNIYDIPWWQWVAFVDMGRVSDESSFSELHSDMQWSAGGAVRFQVEGIVVRAEMAWGSEESLFRVMVNQEGHHHHHH”, the “soluble on expression in E. coli” value was “not soluble”.
